The target in this test is recombinant human glandular kallikrein 2 (hK2) (human) (UniProt P20151). The test can be described thus: cell-based or functional assay.

The record followed here is US20120309692A1.

B1: PSTI (protein, UniProt P00995 24-79, looked up)
chain: DSLGREAKCYNELNGCTKIYDPVCGTDGNTYPNECVLCFENRKRQTSILIQKSGPC
On to B1, for which the hK2 Activity (%) of inhibitor-free control, inhibitor at 0.08 µM turned out to be 100% and the hK2 Activity (%) of inhibitor-free control, inhibitor at 4 µM came to 89%.

B2: protein C inhibitor (PCI) (protein, UniProt P05154 20-406, looked up)
chain: HRHHPREMKKRVEDLHVGATVAPSSRRDFTFDLYRALASAAPSQSIFFSPVSISMSLAMLSLGAGSSTKMQILEGLGLNLQKSSEKELHRGFQQLLQELNQPRDGFQLSLGNALFTDLVVDLQDTFVSAMKTLYLADTFPTNFRDSAGAMKQINDYVAKQTKGKIVDLLKNLDSNAVVIMVNYIFFKAKWETSFNHKGTQEQDFYVTSETVVRVPMMSREDQYHYLLDRNLSCRVVGVPYQGNATALFILPSEGKMQQVENGLSEKTLRKWLKMFKKRQLELYLPKFSIEGSYQLEKVLPSLGISNVFTSHADLSGISNHSNIQVSEMVHKAVVEVDESGTRAAAATGTIFTFRSARLNSQRLVFNRPFLMFIVDNNILFLGKVNRP
Consider B2, for which the hK2 Activity (%) of inhibitor-free control, inhibitor at 0.016 µM stood at 50% and the hK2 Activity (%) of inhibitor-free control, inhibitor at 0.08 µM was found to be 0%.

B3: α1-antichymotrypsin (ACT) (protein, human, UniProt P01011 24-423, looked up)
chain: HPNSPLDEENLTQENQDRGTHVDLGLASANVDFAFSLYKQLVLKAPDKNVIFSPLSISTALAFLSLGAHNTTLTEILKGLKFNLTETSEAEIHQSFQHLLRTLNQSSDELQLSMGNAMFVKEQLSLLDRFTEDAKRLYGSEAFATDFQDSAAAKKLINDYVKNGTRGKITDLIKDLDSQTMMVLVNYIFFKAKWEMPFDPQDTHQSRFYLSKKKWVMVPMMSLHHLTIPYFRDEELSCTVVELKYTGNASALFILPDQDKMEEVEAMLLPETLKRWRDSLEFREIGELYLPKFSISRDYNLNDILLQLGIEEAFTSKADLSGITGARNLAVSQVVHKAVLDVFEEGTEASAATAVKITLLSALVETRTIVRFNRPFLMIIVPTDTQNIFFMSKVTNPKQA
In the case of B3, the hK2 Activity (%) of inhibitor-free control, inhibitor at 0.8 µM came to 100%.
